{
  "source": "paper PMC11574045",
  "about": "“A cofactor-induced repressive type of transcription factor condensation can be induced by synthetic peptides to suppress tumorigenesis” (The EMBO Journal, 2024)",
  "molecules": {"B1": {"name": "DPRX (protein, UniProt A6NFQ7 1-191, looked up)", "Divergent paired-related …": "MPGSEDLRKGKDQMHSHRKRTMFTKKQLEDLNILFNENPYPNPSLQKEMASKIDIHPTVLQVWFKNHRAKLKKAKCKHIHQKQETPQPPIPEGGVSTSVGLRNADTLPRLPNAAHPIGLVYTGHRVPSFQLILYPNLKVPANDFIGHRIVHFGCCRDPNIYCLYPILESQVCAPSFHSGSPACSSNQSRER"}, "B2": {"name": "DMP-1 (protein, UniProt Q9Y222 1-760, looked up)", "Cyclin-D-binding Myb-like …": "MSTVEEDSDTVTVETVNSVTLTQDTEGNLILHCPQNEADEIDSEDSIEPPHKRLCLSSEDDQSIDDSTPCISVVALPLSENDQSFEVTMTATTEVADDEVTEGTVTQIQILQNEQLDEISPLGNEEVSAVSQAWFTTKEDKDSLTNKGHKWKQGMWSKEEIDILMNNIERYLKARGIKDATEIIFEMSKDERKDFYRTIAWGLNRPLFAVYRRVLRMYDDRNHVGKYTPEEIEKLKELRIKHGNDWATIGAALGRSASSVKDRCRLMKDTCNTGKWTEEEEKRLAEVVHELTSTEPGDIVTQGVSWAAVAERVGTRSEKQCRSKWLNYLNWKQSGGTEWTKEDEINLILRIAELDVADENDINWDLLAEGWSSVRSPQWLRSKWWTIKRQIANHKDVSFPVLIKGLKQLHENQKNNPTLLENKSGSGVPNSNTNSSVQHVQIRVARLEDNTAISSSPMAALQIPVQITHVSSADSPATVDSETITLNSGTLQTFEILPSFHLQPTGTPGTYLLQTSSSQGLPLTLTASPTVTLTAAAPASPEQIIVHALSPEHLLNTSDNVTVQCHTPRVIIQTVATEDITSSISQAELTVDSDIQSSDFPEPPDALEADTFPDEIHHPKMTVEPSFNDAHVSKFSDQNSTELMNSVMVRTEEEISDTDLKQEESPSDLASAYVTEGLESPTIEEQVDQTIDDETILIVPSPHGFIQASDVIDTESVLPLTTLTDPILQHHQEESNIIGSSLGSPVSEDSKDVEDLVNCH"}, "B3": {"name": "DP-1 (protein, UniProt Q14186 1-410, looked up)", "Transcription factor Dp-1": "MAKDAGLIEANGELKVFIDQNLSPGKGVVSLVAVHPSTVNPLGKQLLPKTFGQSNVNIAQQVVIGTPQRPAASNTLVVGSPHTPSTHFASQNQPSDSSPWSAGKRNRKGEKNGKGLRHFSMKVCEKVQRKGTTSYNEVADELVAEFSAADNHILPNESAYDQKNIRRRVYDALNVLMAMNIISKEKKEIKWIGLPTNSAQECQNLEVERQRRLERIKQKQSQLQELILQQIAFKNLVQRNRHAEQQASRPPPPNSVIHLPFIIVNTSKKTVIDCSISNDKFEYLFNFDNTFEIHDDIEVLKRMGMACGLESGSCSAEDLKMARSLVPKALEPYVTEMAQGTVGGVFITTAGSTSNGTRFSASDLTNGADGMLATSSNGSQYSGSRVETPVSYVGEDDEEDDDFNENDEDD"}, "B4": {"name": "DDIT3 (protein, UniProt P35638 1-169, looked up)", "DNA damage-inducible …": "MAAESLPFSFGTLSSWELEAWYEDLQEVLSSDENGGTYVSPPGNEEEESKIFTTLDPASLAWLTEEEPEPAEVTSTSQSPHSPDSSQSSLAQEEEEEDQGRTRKRKQSGHSPARAGKQRMKEKEQENERKVAQLAEENERLKQEIERLTREVEATRRALIDRMVNLHQA"}, "B5": {"name": "DMRTA1 (protein, UniProt Q5VZB9 1-504, looked up)", "Doublesex- and mab-3-related …": "MERSQCGSRDRGVSGRPHLAPGLVVAAPPPPSPALPVPSGMQVPPAFLRPPSLFLRAAAAAAAAAAATSGSGGCPPAPGLESGVGAVGCGYPRTPKCARCRNHGVVSALKGHKRFCRWRDCACAKCTLIAERQRVMAAQVALRRQQAQEESEARGLQRLLCSGLSWPPGGRASGGGGRAENPQSTGGPAAGAALGLGALRQASGSATPAFEVFQQDYPEEKQEQKESKCESCQNGQEELISKSHQLYLGSSSRSNGVIGKQSIGSSISEYSNKPDSILSPHPGEQSGGEESPRSLSSSDLESGNESEWVKDLTATKASLPTVSSRPRDPLDILTKIFPNYRRSRLEGILRFCKGDVVQAIEQVLNGKEHKPDNRNLANSEELENTAFQRASSFSLAGIGFGTLGNKSAFSPLQTTSASYGGDSSLYGVNPRVGISPLRLAYSSAGRGLSGFMSPYLTPGLVPTLPFRPALDYAFSGMIRDSSYLSSKDSITCGRLYFRPNQDNP"}, "B6": {"name": "DDX17 (protein, UniProt Q92841 1-729, looked up)", "Probable ATP-dependent RNA …": "MPTGFVAPILCVLLPSPTREAATVASATGDSASERESAAPAAAPTAEAPPPSVVTRPEPQALPSPAIRAPLPDLYPFGTMRGGGFGDRDRDRDRGGFGARGGGGLPPKKFGNPGERLRKKKWDLSELPKFEKNFYVEHPEVARLTPYEVDELRRKKEITVRGGDVCPKPVFAFHHANFPQYVMDVLMDQHFTEPTPIQCQGFPLALSGRDMVGIAQTGSGKTLAYLLPAIVHINHQPYLERGDGPICLVLAPTRELAQQVQQVADDYGKCSRLKSTCIYGGAPKGPQIRDLERGVEICIATPGRLIDFLESGKTNLRRCTYLVLDEADRMLDMGFEPQIRKIVDQIRPDRQTLMWSATWPKEVRQLAEDFLRDYTQINVGNLELSANHNILQIVDVCMESEKDHKLIQLMEEIMAEKENKTIIFVETKRRCDDLTRRMRRDGWPAMCIHGDKSQPERDWVLNEFRSGKAPILIATDVASRGLDVEDVKFVINYDYPNSSEDYVHRIGRTARSTNKGTAYTFFTPGNLKQARELIKVLEEANQAINPKLMQLVDHRGGGGGGGGRSRYRTTSSANNPNLMYQDECDRRLRGVKDGGRRDSASYRDRSETDRAGYANGSGYGSPNSAFGAQAGQYTYGQGTYGAAAYGTSSYTAQEYGAGTYGASSTTSTGRSSQSSSQQFSGIGRSGQQPQPLMSQQFAQPPGATNMIGYMGQTAYQYPPPPPPPPPSRK"}, "B7": {"name": "DBX2 (protein, UniProt Q6ZNG2 1-339, looked up)", "Homeobox protein DBX2": "MLPSAVAAHAGAYWDVVASSALLNLPAAPGFGNLGKSFLIENLLRVGGAPTPRLQPPAPHDPATALATAGAQLRPLPASPVPLKLCPAAEQVSPAGAPYGTRWAFQVLSPSADSARLPGRAPGDRDCTFQPSAPAPSKPFLLSTPPFYSACCGGSCRRPASSTAFPREESMLPLLTQDSNSKARRGILRRAVFSEDQRKALEKMFQKQKYISKTDRKKLAINLGLKESQVKIWFQNRRMKWRNSKEKEVLSNRCIQEVGLQEDPLSRSALGFPSPCPSIWDVPQQHSSPRWRENSPEPSERLIQESSGAPPPEANSLQGALYLCSEEEAGSKGVLTGAV"}, "B8": {"name": "DLX2 (protein, UniProt Q07687 1-328, looked up)", "Homeobox protein DLX-2": "MTGVFDSLVADMHSTQIAASSTYHQHQQPPSGGGAGPGGNSSSSSSLHKPQESPTLPVSTATDSSYYTNQQHPAGGGGGGGSPYAHMGSYQYQASGLNNVPYSAKSSYDLGYTAAYTSYAPYGTSSSPANNEPEKEDLEPEIRIVNGKPKKVRKPRTIYSSFQLAALQRRFQKTQYLALPERAELAASLGLTQTQVKIWFQNRRSKFKKMWKSGEIPSEQHPGASASPPCASPPVSAPASWDFGVPQRMAGGGGPGSGGSGAGSSGSSPSSAASAFLGNYPWYHQTSGSASHLQATAPLLHPTQTPQPHHHHHHHGGGGAPVSAGTIF"}, "B9": {"name": "ACTL6B (protein, UniProt Q99MR0 1-426, looked up)", "Actin-like protein 6B": "MSGGVYGGDEVGALVFDIGSFSVRAGYAGEDCPKADFPTTVGLLAAEEGGGLELEGEKEKKGKIFHIDTNALHVPRDGAEVMSPLKNGMIEDWECFRAILDHTYSKHVKSEPNLHPVLMSEAPWNTRAKREKLTELMFEQYNIPAFFLCKTAVLTAFANGRSTGLVLDSGATHTTAIPVHDGYVLQQGIVKSPLAGDFISMQCRELFQEMAIDIIPPYMIAAKEPVREGAPPNWKKKEKLPQVSKSWHNYMCNEVIQDFQASVLQVSDSPYDEQVAAQMPTVHYEMPNGYNTDYGAERLRIPEGLFDPSNVKGLSGNTMLGVGHVVTTSIGMCDIDIRPGLYGSVIVTGGNTLLQGFTDRLNRELSQKTPPSMRLKLIASNSTMERKFSPWIGGSILASLGTFQQMWISKQEYEEGGKQCVERKCP"}, "B10": {"name": "DLX4 (protein, UniProt Q92988 1-240, looked up)", "Homeobox protein DLX-4": "MTSLPCPLPGRDASKAVFPDLAPVPSVAAAYPLGLSPTTAASPNLSYSRPYGHLLSYPYTEPANPGDSYLSCQQPAALSQPLCGPAEHPQELEADSEKPRLSPEPSERRPQAPAKKLRKPRTIYSSLQLQHLNQRFQHTQYLALPERAQLAAQLGLTQTQVKIWFQNKRSKYKKLLKQNSGGQEGDFPGRTFSVSPCSPPLPSLWDLPKAGTLPTSGYGNSFGAWYQHHSSDVLASPQMM"}, "B11": {"name": "DDX20 (protein, UniProt Q9UHI6 1-824, looked up)", "Probable ATP-dependent RNA …": "MAAAFEASGALAAVATAMPAEHVAVQVPAPEPTPGPVRILRTAQDLSSPRTRTGDVLLAEPADFESLLLSRPVLEGLRAAGFERPSPVQLKAIPLGRCGLDLIVQAKSGTGKTCVFSTIALDSLVLENLSTQILILAPTREIAVQIHSVITAIGIKMEGLECHVFIGGTPLSQDKTRLKKCHIAVGSPGRIKQLIELDYLNPGSIRLFILDEADKLLEEGSFQEQINWIYSSLPASKQMLAVSATYPEFLANALTKYMRDPTFVRLNSSDPSLIGLKQYYKVVNSYPLAHKVFEEKTQHLQELFSRIPFNQALVFSNLHSRAQHLADILSSKGFPAECISGNMNQNQRLDAMAKLKHFHCRVLISTDLTSRGIDAEKVNLVVNLDVPLDWETYMHRIGRAGRFGTLGLTVTYCCRGEEENMMMRIAQKCNINLLPLPDPIPSGLMEECVDWDVEVKAAVHTYGIASVPNQPLKKQIQKIERTLQIQKAHGDHMASSRNNSVSGLSVKSKNNTKQKLPVKSHSECGIIEKATSPKELGCDRQSEEQMKNSVQTPVENSTNSQHQVKEALPVSLPQIPCLSSFKIHQPYTLTFAELVEDYEHYIKEGLEKPVEIIRHYTGPGDQTVNPQNGFVRNKVIEQRVPVLASSSQSGDSESDSDSYSSRTSSQSKGNKSYLEGSSDNQLKDSESTPVDDRISLEQPPNGSDTPNPEKYQESPGIQMKTRLKEGASQRAKQSRRNLPRRSSFRLQTEAQEDDWYDCHREIRLSFSDTYQDYEEYWRAYYRAWQEYYAAASHSYYWNAQRHPSWMAAYHMNTIYLQEMMHSNQ"}},
  "data": [
    {"tested_on": "HEK293FT cells transfected with TF library", "assay": "Screening of TF condensates based on fluorescent puncta", "type": "cell-based", "settings": "Figure 1B numerical data; TF library screen, one value per transcriptional factor", "experimental": "TF plasmids were automatically added to black-walled 384-well plates at 80 ng per well to reach a final concentration of 1.6 μg/ml. Polyethylenimine (PEI, Sigma) was then added to the plasmid-loaded plates at 240 ng per well (4.8 μg/ml). Subsequently, HEK293FT cells were seeded into the plate at 2000 cells per well. After 60 h, cells were cultured in medium with or without glucose for 12 h, and then fixed with 4% paraformaldehyde (PFA) at room temperature for 30 min. After three washes with PBS, fixed cells were permeabilized with 0.05% Triton X-100 for 15 min. Thereafter, cells were blocked with 5% BSA for 1 h, and then incubated overnight with anti-Flag (Sigma F3165, 1:200) and anti-GAL4 (Abbkine ABP57232, 1:200) primary antibodies at 4 °C. The cells were then gently washed with PBS, followed by being incubated with Alexa Fluor Plus 488 goat anti-mouse IgG secondary antibody (Thermo A32723, 1:400) or Alexa Fluor Plus 488 goat anti-rabbit IgG secondary antibody (Thermo A32731, 1:400) for 1 h. The plates were kept at 4 °C in the dark before being analyzed using an Opera System (Perkin Elmer). Fifty random fields per well were scanned and analyzed using the Columbus Plus Image Data Storage and Analysis System (Perkin Elmer).", "values": [
      {"molecule": "B1", "Z score of condensed fraction": -0.8656},
      {"molecule": "B2", "Z score of condensed fraction": 2.192},
      {"molecule": "B3", "Z score of condensed fraction": 0.7932},
      {"molecule": "B4", "Z score of condensed fraction": -1.245},
      {"molecule": "B5", "Z score of condensed fraction": -0.1434},
      {"molecule": "B6", "Z score of condensed fraction": 0.6597},
      {"molecule": "B7", "Z score of condensed fraction": 2.182},
      {"molecule": "B8", "Z score of condensed fraction": 0.04096},
      {"molecule": "B9", "Z score of condensed fraction": 0.5544},
      {"molecule": "B10", "Z score of condensed fraction": -0.356},
      {"molecule": "B11", "Z score of condensed fraction": 1.184}
    ]}
  ]
}
